This passage reports fold more TNPO1 co-immunoprecipitated with Rab8-TN co-expressed than with Rab8-QL or Rab8-wt results from PMC5087665.

For the test, the target named is CFF–Myc. Kind of test: co-IP; Fig. 5D: HEK293T lysates co-expressing HA–TNPO1, CFF–Myc and GFP–Rab8-wt, GFP–Rab8-QL, GFP–Rab8-TN or GFP; anti-Myc immunoprecipitation; blotted for TNPO1 and GFP chimeras.

HA–TNPO1, sequence (Q92973 whole entry): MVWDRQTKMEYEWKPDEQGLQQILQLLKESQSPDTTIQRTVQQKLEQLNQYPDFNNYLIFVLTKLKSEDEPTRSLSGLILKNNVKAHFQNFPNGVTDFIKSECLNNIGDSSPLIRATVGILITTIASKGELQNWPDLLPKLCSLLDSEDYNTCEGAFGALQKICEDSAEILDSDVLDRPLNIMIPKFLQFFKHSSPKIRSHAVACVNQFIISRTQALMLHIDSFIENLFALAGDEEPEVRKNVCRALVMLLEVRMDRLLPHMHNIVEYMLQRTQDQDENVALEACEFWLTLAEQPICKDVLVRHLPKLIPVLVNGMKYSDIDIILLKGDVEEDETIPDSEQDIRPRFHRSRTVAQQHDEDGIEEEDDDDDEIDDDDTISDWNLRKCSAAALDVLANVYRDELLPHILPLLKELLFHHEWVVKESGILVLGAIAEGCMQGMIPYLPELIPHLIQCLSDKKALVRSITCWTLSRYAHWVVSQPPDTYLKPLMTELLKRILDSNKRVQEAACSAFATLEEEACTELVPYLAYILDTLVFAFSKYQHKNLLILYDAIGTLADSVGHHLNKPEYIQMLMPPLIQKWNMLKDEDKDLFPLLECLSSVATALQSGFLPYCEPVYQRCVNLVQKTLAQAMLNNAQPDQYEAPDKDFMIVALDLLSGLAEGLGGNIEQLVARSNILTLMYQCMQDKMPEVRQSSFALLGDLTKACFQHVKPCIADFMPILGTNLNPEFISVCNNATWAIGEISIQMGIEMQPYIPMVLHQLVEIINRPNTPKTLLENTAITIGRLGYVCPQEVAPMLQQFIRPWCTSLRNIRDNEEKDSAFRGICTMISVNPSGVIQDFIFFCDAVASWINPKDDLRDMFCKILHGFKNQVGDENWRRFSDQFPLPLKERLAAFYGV

The substance “HA–TNPO1 (from UniProt Q92973 1-898) (natural protein)” registered a fold more TNPO1 co-immunoprecipitated with Rab8-TN co-expressed than with Rab8-QL or Rab8-wt of 3 fold.
